Experimental data published in publication PMC12443421.

Target: wild-type unmodified 147 bp nucleosome (nucleosome core particle), P04908;P62807;Q71DI3;P62805
Experiment: EMSA
Settings: chain shown with the change

| Binder | Kd | Kd (0-32 µM KDM5A^MutR titration) |
| --- | --- | --- |
| KDM5A^CAT (lysine demethylase 5A, residues 1-801), P29375 R264A; R265A; R266A; R271A (protein) MAGVGPGGYAAEFVPPPECPVFEPSWEEFTDPLSFIGRIRPLAEKTGICKIRPPKDWQPPFACEVKSFRFTPRVQRLNELEAMTRVRLDFLDQLAKFWELQGSTLKIPVVERKILDLYALSKIVASKGGFEMVTKEKKWSKVGSRLGYLPGKGTGSLLKSHYERILYPYELFQSGVSLMGVQMPNLDLKEKVEPEVLSTDTQTSPEPGTRMNILPKRTRRVKTQSESGDVSRNTELKKLQIFGAGPKVVGLAMGTKDKEDEVTAAAKVTNRSDAFNMQMRQRKGTLSVNFVDLYVCMFCGRGNNEDKLLLCDGCDDSYHTFCLIPPLPDVPKGDWRCPKCVAEECSKPREAFGFEQAVREYTLQSFGEMADNFKSDYFNMPVHMVPTELVEKEFWRLVSSIEEDVIVEYGADISSKDFGSGFPVKDGRRKILPEEEEYALSGWNLNNMPVLEQSVLAHINVDISGMKVPWLYVGMCFSSFCWHIEDHWSYSINYLHWGEPKTWYGVPSHAAEQLEEVMRELAPELFESQPDLLHQLVTIMNPNVLMEHGVPVYRTNQCAGEFVVTFPRAYHSGFNQGYNFAEAVNFCTADWLPIGRQCVNHYRRLRRHCVFSHEELIFKMAADPECLDVGLAAMVCKELTLMTEEETRLRESVVQMGVLMSEEEVFELVPDDERQCSACRTTCFLSALTCSCNPERLVCLYHPTDLCPCPMQKKCLRYRYPLEDLPSLLYGVKVRAQSYDTWVSRVTEALSANFNHKKDLIELRVMLEDAEDRKYPENDLFRKLRDAVKEAETCASVAQLL | 10.3 µM |  |
| KDM5A^CAT (lysine demethylase 5A, residues 1-801), P29375 R217A; R219A; R220A (protein) MAGVGPGGYAAEFVPPPECPVFEPSWEEFTDPLSFIGRIRPLAEKTGICKIRPPKDWQPPFACEVKSFRFTPRVQRLNELEAMTRVRLDFLDQLAKFWELQGSTLKIPVVERKILDLYALSKIVASKGGFEMVTKEKKWSKVGSRLGYLPGKGTGSLLKSHYERILYPYELFQSGVSLMGVQMPNLDLKEKVEPEVLSTDTQTSPEPGTRMNILPKATAAVKTQSESGDVSRNTELKKLQIFGAGPKVVGLAMGTKDKEDEVTRRRKVTNRSDAFNMQMRQRKGTLSVNFVDLYVCMFCGRGNNEDKLLLCDGCDDSYHTFCLIPPLPDVPKGDWRCPKCVAEECSKPREAFGFEQAVREYTLQSFGEMADNFKSDYFNMPVHMVPTELVEKEFWRLVSSIEEDVIVEYGADISSKDFGSGFPVKDGRRKILPEEEEYALSGWNLNNMPVLEQSVLAHINVDISGMKVPWLYVGMCFSSFCWHIEDHWSYSINYLHWGEPKTWYGVPSHAAEQLEEVMRELAPELFESQPDLLHQLVTIMNPNVLMEHGVPVYRTNQCAGEFVVTFPRAYHSGFNQGYNFAEAVNFCTADWLPIGRQCVNHYRRLRRHCVFSHEELIFKMAADPECLDVGLAAMVCKELTLMTEEETRLRESVVQMGVLMSEEEVFELVPDDERQCSACRTTCFLSALTCSCNPERLVCLYHPTDLCPCPMQKKCLRYRYPLEDLPSLLYGVKVRAQSYDTWVSRVTEALSANFNHKKDLIELRVMLEDAEDRKYPENDLFRKLRDAVKEAETCASVAQLL | 12 µM |  |
| KDM5A^CAT (lysine demethylase 5A, residues 1-801), P29375 R280A; R282A (protein) MAGVGPGGYAAEFVPPPECPVFEPSWEEFTDPLSFIGRIRPLAEKTGICKIRPPKDWQPPFACEVKSFRFTPRVQRLNELEAMTRVRLDFLDQLAKFWELQGSTLKIPVVERKILDLYALSKIVASKGGFEMVTKEKKWSKVGSRLGYLPGKGTGSLLKSHYERILYPYELFQSGVSLMGVQMPNLDLKEKVEPEVLSTDTQTSPEPGTRMNILPKRTRRVKTQSESGDVSRNTELKKLQIFGAGPKVVGLAMGTKDKEDEVTRRRKVTNRSDAFNMQMAQAKGTLSVNFVDLYVCMFCGRGNNEDKLLLCDGCDDSYHTFCLIPPLPDVPKGDWRCPKCVAEECSKPREAFGFEQAVREYTLQSFGEMADNFKSDYFNMPVHMVPTELVEKEFWRLVSSIEEDVIVEYGADISSKDFGSGFPVKDGRRKILPEEEEYALSGWNLNNMPVLEQSVLAHINVDISGMKVPWLYVGMCFSSFCWHIEDHWSYSINYLHWGEPKTWYGVPSHAAEQLEEVMRELAPELFESQPDLLHQLVTIMNPNVLMEHGVPVYRTNQCAGEFVVTFPRAYHSGFNQGYNFAEAVNFCTADWLPIGRQCVNHYRRLRRHCVFSHEELIFKMAADPECLDVGLAAMVCKELTLMTEEETRLRESVVQMGVLMSEEEVFELVPDDERQCSACRTTCFLSALTCSCNPERLVCLYHPTDLCPCPMQKKCLRYRYPLEDLPSLLYGVKVRAQSYDTWVSRVTEALSANFNHKKDLIELRVMLEDAEDRKYPENDLFRKLRDAVKEAETCASVAQLL | 7.8 µM |  |
| KDM5A^CAT (lysine demethylase 5A, residues 1-801), P29375 R210A; R217A; R219A; R220A; R232A; R264A; R265A; R266A; R271A; R280A; R282A (protein) MAGVGPGGYAAEFVPPPECPVFEPSWEEFTDPLSFIGRIRPLAEKTGICKIRPPKDWQPPFACEVKSFRFTPRVQRLNELEAMTRVRLDFLDQLAKFWELQGSTLKIPVVERKILDLYALSKIVASKGGFEMVTKEKKWSKVGSRLGYLPGKGTGSLLKSHYERILYPYELFQSGVSLMGVQMPNLDLKEKVEPEVLSTDTQTSPEPGTAMNILPKATAAVKTQSESGDVSANTELKKLQIFGAGPKVVGLAMGTKDKEDEVTAAAKVTNASDAFNMQMAQAKGTLSVNFVDLYVCMFCGRGNNEDKLLLCDGCDDSYHTFCLIPPLPDVPKGDWRCPKCVAEECSKPREAFGFEQAVREYTLQSFGEMADNFKSDYFNMPVHMVPTELVEKEFWRLVSSIEEDVIVEYGADISSKDFGSGFPVKDGRRKILPEEEEYALSGWNLNNMPVLEQSVLAHINVDISGMKVPWLYVGMCFSSFCWHIEDHWSYSINYLHWGEPKTWYGVPSHAAEQLEEVMRELAPELFESQPDLLHQLVTIMNPNVLMEHGVPVYRTNQCAGEFVVTFPRAYHSGFNQGYNFAEAVNFCTADWLPIGRQCVNHYRRLRRHCVFSHEELIFKMAADPECLDVGLAAMVCKELTLMTEEETRLRESVVQMGVLMSEEEVFELVPDDERQCSACRTTCFLSALTCSCNPERLVCLYHPTDLCPCPMQKKCLRYRYPLEDLPSLLYGVKVRAQSYDTWVSRVTEALSANFNHKKDLIELRVMLEDAEDRKYPENDLFRKLRDAVKEAETCASVAQLL | 14 µM | 14 µM |
